Source: patent US20040059519A1
Several values for one entry are separate records, joined by “and”; a condition that tells them apart may be missing. Equal entries are not always repeated.

Assays:
[1] = biological target: Human chorionic gonadotropin (human) (UniProt P01215); assay: sandwich, MAB602 capture beads, flow cytometry; hCG 0.02 ng/mL
[2] = biological target: Human chorionic gonadotropin (human) (UniProt P01215); assay: sandwich, MAB602 capture beads, flow cytometry; hCG 2000 ng/mL
[3] = biological target: Human chorionic gonadotropin (human) (UniProt P01215); assay: multiplex sandwich, MAB602 capture beads; hCG 16 ng/mL, washed
[4] = biological target: Human chorionic gonadotropin (human) (UniProt P01215); assay: multiplex sandwich, MAB602 capture beads; hCG 62 ng/mL, washed
[5] = biological target: Human chorionic gonadotropin (human) (UniProt P01215); assay: bead sandwich, flow cytometry; capture A3 beads, hCG 20.0 ug/mL
[6] = biological target: Human chorionic gonadotropin (human) (UniProt P01215); assay: multiplex sandwich, MAB602 capture beads; hCG 0.5 ng/mL, washed
[7] = biological target: Human chorionic gonadotropin (human) (UniProt P01215); assay: multiplex sandwich, MAB602 capture beads; hCG 2000 ng/mL, washed
[8] = biological target: Human chorionic gonadotropin (human) (UniProt P01215); assay: multiplex sandwich, MAB602 capture beads; hCG 500 ng/mL, no wash
Alpha fetoprotein [9] = biological target: Alpha fetoprotein (UniProt P02771); assay: anti-AFP capture beads, flow cytometry; AFP 0.0 ng/mL, anti-hCG probe
Sequence of UniProt P02771 (P02771 19-609 limits assumed): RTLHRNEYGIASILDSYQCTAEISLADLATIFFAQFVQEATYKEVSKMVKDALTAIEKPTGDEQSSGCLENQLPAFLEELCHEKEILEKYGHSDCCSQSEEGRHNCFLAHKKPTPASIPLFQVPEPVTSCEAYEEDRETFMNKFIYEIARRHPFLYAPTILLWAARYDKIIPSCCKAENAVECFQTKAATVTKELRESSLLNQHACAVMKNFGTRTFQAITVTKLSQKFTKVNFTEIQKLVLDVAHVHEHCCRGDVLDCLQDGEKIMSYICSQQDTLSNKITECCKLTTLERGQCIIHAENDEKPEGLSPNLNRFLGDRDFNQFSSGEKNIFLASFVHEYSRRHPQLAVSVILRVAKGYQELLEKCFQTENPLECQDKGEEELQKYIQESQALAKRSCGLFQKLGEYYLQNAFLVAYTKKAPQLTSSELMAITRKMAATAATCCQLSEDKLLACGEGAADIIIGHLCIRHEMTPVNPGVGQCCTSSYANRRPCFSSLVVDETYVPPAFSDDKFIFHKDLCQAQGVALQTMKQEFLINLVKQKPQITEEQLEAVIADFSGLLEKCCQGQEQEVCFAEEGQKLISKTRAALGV

Alpha fetoprotein [10] = biological target: Alpha fetoprotein (UniProt P02771); assay: MAB602 capture beads, flow cytometry; AFP 1000.0 ng/mL, anti-hCG probe
Alpha fetoprotein [11] = biological target: Alpha fetoprotein (UniProt P02771); assay: multiplex sandwich, S10473 capture beads; AFP 8 ng/mL, no wash
Alpha fetoprotein [12] = biological target: Alpha fetoprotein (UniProt P02771); assay: multiplex sandwich, S10473 capture beads; AFP 0.5 ng/mL, washed
Alpha fetoprotein [13] = biological target: Alpha fetoprotein (UniProt P02771); assay: multiplex sandwich, S10473 capture beads; AFP 125 ng/mL, washed
Alpha fetoprotein [14] = biological target: Alpha fetoprotein (UniProt P02771); assay: multiplex sandwich, S10473 capture beads; AFP 250 ng/mL, no wash
[15] = biological target: Human chorionic gonadotropin (human) (UniProt P01215); assay: MAB602 capture beads, flow cytometry; hCG 0.1 ng/mL, anti-AFP probe
Alpha fetoprotein [16] = biological target: Alpha fetoprotein (UniProt P02771); assay: anti-AFP capture beads, flow cytometry; AFP 0.1 ng/mL, anti-AFP probe
Alpha fetoprotein [17] = biological target: Alpha fetoprotein (UniProt P02771); assay: multiplex no-wash sandwich, S10473 beads; serum Level 1, AFP 10.7 U/mL
Alpha fetoprotein [18] = biological target: Alpha fetoprotein (UniProt P02771); assay: multiplex no-wash sandwich, S10473 beads; serum Level 2, AFP 53.8 U/mL

Sequence of UniProt P01215 (P01215 25-116, chain 1 of 2, other chains not shown): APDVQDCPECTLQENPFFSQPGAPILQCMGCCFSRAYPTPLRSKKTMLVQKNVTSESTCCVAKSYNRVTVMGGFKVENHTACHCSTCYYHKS

**Q.** Which MIF of Fm [1] does the source give for “AB633 affinity purified polyclonal anti-hCG antibody, Bodipy FL-CASE labeled” here?
**A.** The MIF of Fm was 120 and 147.

**Q.** What about the MIF of Fm [2] of the same substance?
**A.** Its MIF of Fm is 9290 and 9390.

**Q.** And the MIF of Fm [3]?
**A.** The MIF of Fm was 2530.

**Q.** And the MIF of Fm [4]?
**A.** The MIF of Fm was 3200.

**Q.** What about the MIF of Fm [5] of the same substance?
**A.** The MIF of Fm was 3150.

**Q.** What about the MIF of Fm [6] of the same substance?
**A.** Its MIF of Fm is 175.

**Q.** And the MIF of Fm [7]?
**A.** Its MIF of Fm is 3190.

**Q.** And the MIF of Fm [8]?
**A.** Its MIF of Fm is 1200.

**Q.** What about the MIF of Fm (Alpha fetoprotein [9]) of the same substance?
**A.** Its MIF of Fm is 61.

**Q.** And the MIF of Fm (Alpha fetoprotein [10])?
**A.** The MIF of Fm was 53.

**Q.** “M20077 affinity purified polyclonal anti-AFP antibody, Bodipy FL-CASE labeled” was tested. Which MIF of Fm (Alpha fetoprotein [11]) did it give?
**A.** Its MIF of Fm is 190.

**Q.** What about the MIF of Fm (Alpha fetoprotein [12]) of the same substance?
**A.** The MIF of Fm was 25.

**Q.** What about the MIF of Fm (Alpha fetoprotein [13]) of the same substance?
**A.** Its MIF of Fm is 1050.

**Q.** What about the MIF of Fm (Alpha fetoprotein [14]) of the same substance?
**A.** The MIF of Fm was 956.

**Q.** And the MIF of Fm [15]?
**A.** Its MIF of Fm is 49.

**Q.** What about the MIF of Fm (Alpha fetoprotein [16]) of the same substance?
**A.** Its MIF of Fm is 44.

**Q.** What about the MIF AVG (Alpha fetoprotein [17]) of the same substance?
**A.** Its MIF AVG is 78.

**Q.** And the MIF of FL1 (Alpha fetoprotein [17])?
**A.** The MIF of FL1 was 74 and 83 and 77.

**Q.** And the MIF AVG (Alpha fetoprotein [18])?
**A.** Its MIF AVG is 363.

**Q.** What about the MIF of FL1 (Alpha fetoprotein [18]) of the same substance?
**A.** Its MIF of FL1 is 351 and 365 and 372.
